Source: patent publication US20070020252A1, “Modified protease inhibitors” (priority 2003, published 2007)

Tests used:
[1] = Pharmacokinetic study in rabbits: plasma clearance of 125I-labeled protein, SEC of plasma; format: in vivo, New Zealand White rabbits
Protocol: Pharmacokinetic properties of DX-890 and PEG-30-DX-890 (conjugation at pH 7.4) were measured by iodinating the proteins and measuring clearance of the radiolabel from circulation in rabbits. The two DX-890 preparations were iodinated with iodine-125 using the iodogen method. After radiolabeling, the two labeled protein preparations were purified from unbound label by size exclusion chromatography (SEC). Fractions from the SEC column having the highest radioactivity were pooled. The purified, radiolabeled preparations were characterized for specific activity by gamma counting and for purity by SEC using a Superose-12 column equipped with an in-line radiation detector.
New Zealand White rabbits (ca. 2.5 Kg) were used for clearance measurements, with one animal used for each of the two labeled protein preparations. The radiolabeled preparation was injected into the animal via an ear vein. One blood sample was collected per animal per time point with early time points at approximately 0, 2.5, 5, 7, 15, 30, 60, and 90 minutes post injection and later time points at 4, 8, 16, 24, 30, 48, 72, 96, 144, 168, and 192 hours post injection. Samples (about 0.5 mL) were collected into anticoagulant (EDTA) containing tubes. Cells were separated from the plasma fraction by centrifugation. The plasma fraction was divided into two aliquots. One plasma aliquot was stored at −70° C. and the other aliquot was kept at 4° C. for immediate analyse's. Sample analyses included radiation counting for clearance rate determinations and SEC chromatography to test for changes in the size distribution of radiolabeled material in vivo (stability).

[2] = molecular target: T1, human neutrophil elastase (HNE) (Homo sapiens, UniProt P08246); conditions: description statement; cited from earlier work
T1 sequence (P08246 30-267): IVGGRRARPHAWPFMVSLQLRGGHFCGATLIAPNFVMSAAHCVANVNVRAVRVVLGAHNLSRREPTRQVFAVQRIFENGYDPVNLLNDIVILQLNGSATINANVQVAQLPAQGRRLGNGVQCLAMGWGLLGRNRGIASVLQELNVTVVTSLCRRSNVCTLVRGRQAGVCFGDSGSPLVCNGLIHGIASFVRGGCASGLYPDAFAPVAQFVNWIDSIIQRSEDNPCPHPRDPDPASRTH

[3] = Pharmacokinetic study in mice: plasma clearance of 125I-labeled protein, SEC of plasma; format: in vivo
Protocol: The pharmacokinetics of DX-890 and the PEGylated DX-890 compounds were measured by iodinating the proteins on available tyrosine residues and measuring their clearance in mice.
Samples were radio-iodinated by the indirect method using the IODO-GEN reagent (method from Pierce Chem. Co., and first described by Chizzonite [J Immunol 147, 1548-1556, 1991; J. Immunol 148, 3117-3124, 1992]). Samples were incubated with the ^125I-NaI solution for 9 min at which time tyrosine (10 mg/mL, a saturated solution) was added to quench the reaction. After about 15 min a 5 μl aliquot was removed as a standard for counting.
For each labeling reaction, the ^125I-labeled material (approx. 0.6 mL) was purified using a single 5 mL D-salt 1800 polyacrylamide column (Pierce Chem. Co.). […] Samples were applied in and columns were eluted with a series of 0.3 mL aliquots. Recovery of applied activity in all protein fractions was >75% and the total recovery of applied activity was >90%. The fractions containing peak levels of labeled protein were pooled for animal injections. To prepare the injectate, the pool was diluted with Tris buffer (pH 7.5) so that the 100 μL injection volume contained about 10 μg of labeled material.
Time of injection and time of sampling were recorded. At sacrifice, samples of 0.5 ml were collected into anticoagulant (0.02 ml EDTA). Cells were spun down and separated from plasma, and cells were stored at −20° C. Plasma was divided into two aliquots, one frozen and one stored at 4° C. for immediate analysis. Analysis included gamma counting of all samples. In addition, analysis was performed for two plasma samples (N=2) at each time point, i.e., 0, and 30 minutes, for ^125I-DX-890, and 0, 30 minutes, and 24 h for the ^125I-DX-890-PEG conjugates. A SEC-HPLC Superose-12 column was used with an in-line radiation detector (FIGS. 4-7).
The solid curves through the sets of data plotted in FIG. 3 are four-parameter, least-squares fits of Equation 3 to the data. Table 3 presents the values for % α Phase, α Phase Half-life, % β Phase, and β Phase Half-life extracted from the least squares fits to the in vivo clearance data set obtained for each of the four compounds tested in mice.

[4] = Allometric extrapolation of β-phase half-life from mice and rabbits to humans; conditions: 70 Kg human, linear extrapolation from mice and rabbits
Source text: Data on in vivo pharmacokinetic parameters obtained from small laboratory mammals (e.g. rodents, dogs, and monkeys) can be extrapolated to humans by interspecies scaling (summarized by Mahmood and Balian, Life Sciences 7: 579-585, 1996 and Clin Pharmacokinet 36:1-11, 1999). A simple allometric approach describes the relationship between bodyweight (W) and a pharmacokinetic parameter of interest (Y) in terms of the power function: Y=aW^b (Equation 4) where a and b are the empirically determined coefficient and exponent of the allometric equation, respectively. […] Further, of the three most important pharmacokinetic parameters (total body clearance, volume of distribution, and t1/2β) typically measured, t1/2β is least well predicted by Equation 4. With these caveats in mind, data presented in Tables 2 and 4 can be used to provide crude estimates of expected t1/2β in humans.
FIG. 10 presents data from Tables 2 and 4 plotted as log [Beta Phase Half-Live] vs log [Body Mass] for unmodified DX-890 (triangles) and mono-PEG30-DX-890 (circles). Linear extrapolations of the experimental data for mice (25 gm) and rabbits (2.5 Kg) to humans (70 Kg) are shown by the solid crosses in the figure. The extrapolated values for β-phase half-lives in humans are ˜5 hours for unmodified DX-890 and ˜14 days for mono-PEG30-DX-890. […]

[5] = ear vein injection, bi-exponential fit
[6] = tail vein injection, bi-exponential fit

With “DX-890: 56 amino acid Kunitz domain polypeptide derived from ITI-D2, inhibitor of human neutrophil elastase, produced in Pichia pastoris (EACNLPIVRGPCIAFFPRWAFDAVKGKCVLFPYGGCQGNGNKFYSEKECREYCGVP)” the “in vivo stability, SEC analysis of plasma” value [1] was “relatively rapid association of label with higher molecular weight plasma components”, the “% α” value [1, 5] was 75% and the “% β” value [1, 5] was 25%. For the same substance, the T1/2α [1, 5] was 24 s, the T1/2β [1, 5] was 2.75 h and the Ki [2] was 4 pM. For the same substance, the “percentage cleared in the β phase” value [3] was “about 15%”, the “α phase half life” value [3] was “about 1 min” and the “β phase half life” value [3] was “about 1 hr”. For the same substance, the “material remaining in circulation” value ([3]; 30 minutes after injection) was “less than 20%”, the α half life ([3]; Table 4 summary) was 1 min and the β half life ([3]; Table 4 summary) was 1.32 h. The “α Phase Clearance (%)” value [3, 6] was 84%, the “α Phase Half-life” value [3, 6] was 1.0 min and the “β Phase Clearance (%)” value [3, 6] was 16%. The “β Phase Half-life (hr)” value [3, 6] was 1.3 h, the “β Phase Half-life (min)” value [3, 6] was 79 min and the “extrapolated β-phase half-life in humans” value [4] was roughly 5 h.
